Earlier results on 1 substance are cited in PMC2994893.

The target in this data set is Lck phospho-Tyr505 motif pTyr505 motif (Homo sapiens) (UniProt P06239).

For Lck SH2 (from UniProt P06239), the Kd was 300 nM.

As a reminder, the Kd is the free concentration of one partner at which half of the binding sites on the other are occupied at equilibrium, for simple one-to-one binding.
